Reference: patent US20110171259A1 (priority 2008, published 2011)
“Also recorded” adds a separate entry of the source. Ends that are not written are not given here.

Tests used:
Toll-Like Receptor 2 = target: T1, Toll-Like Receptor 2 (Homo sapiens, UniProt O60603+Q15399); settings: Fisette et al., 2003; cited from earlier work
T1 construct: host or cells: epithelial cells

human TLR 1 and 2 = human TLR 1 and 2 (Homo sapiens, UniProt O60603+Q15399); experiment: NF-κB SEAP reporter assay in HEK293 cells expressing TLR 1 and 2; settings: TLR1/2-expressing HEK293 cells; 0, 0.01, 0.1, 1.0 μg; 5 hours exposure; FIG. 3; listed as Lip peptide lipidated MC58
Sequence of human TLR 1 and 2 (O60603 21-784): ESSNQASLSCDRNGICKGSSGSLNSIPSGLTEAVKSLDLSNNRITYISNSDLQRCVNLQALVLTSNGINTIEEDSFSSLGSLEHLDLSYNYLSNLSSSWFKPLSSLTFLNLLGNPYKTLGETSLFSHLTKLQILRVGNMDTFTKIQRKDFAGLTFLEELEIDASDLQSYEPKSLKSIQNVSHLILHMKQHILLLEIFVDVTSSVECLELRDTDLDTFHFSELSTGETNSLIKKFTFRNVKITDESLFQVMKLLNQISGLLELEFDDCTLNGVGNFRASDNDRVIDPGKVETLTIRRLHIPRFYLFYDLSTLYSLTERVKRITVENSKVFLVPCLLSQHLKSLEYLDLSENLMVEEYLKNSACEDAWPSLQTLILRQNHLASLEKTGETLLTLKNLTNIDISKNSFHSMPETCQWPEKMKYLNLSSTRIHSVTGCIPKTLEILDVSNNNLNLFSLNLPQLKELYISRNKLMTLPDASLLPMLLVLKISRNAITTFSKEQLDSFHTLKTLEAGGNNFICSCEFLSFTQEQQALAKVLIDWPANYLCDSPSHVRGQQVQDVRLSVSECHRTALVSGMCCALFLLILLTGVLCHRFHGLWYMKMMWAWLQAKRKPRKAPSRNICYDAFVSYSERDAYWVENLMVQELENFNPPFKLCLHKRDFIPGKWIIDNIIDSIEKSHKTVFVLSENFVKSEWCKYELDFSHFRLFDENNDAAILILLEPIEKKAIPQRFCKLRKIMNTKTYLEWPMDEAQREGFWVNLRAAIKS
Sequence of human TLR 1 and 2 (Q15399 25-786): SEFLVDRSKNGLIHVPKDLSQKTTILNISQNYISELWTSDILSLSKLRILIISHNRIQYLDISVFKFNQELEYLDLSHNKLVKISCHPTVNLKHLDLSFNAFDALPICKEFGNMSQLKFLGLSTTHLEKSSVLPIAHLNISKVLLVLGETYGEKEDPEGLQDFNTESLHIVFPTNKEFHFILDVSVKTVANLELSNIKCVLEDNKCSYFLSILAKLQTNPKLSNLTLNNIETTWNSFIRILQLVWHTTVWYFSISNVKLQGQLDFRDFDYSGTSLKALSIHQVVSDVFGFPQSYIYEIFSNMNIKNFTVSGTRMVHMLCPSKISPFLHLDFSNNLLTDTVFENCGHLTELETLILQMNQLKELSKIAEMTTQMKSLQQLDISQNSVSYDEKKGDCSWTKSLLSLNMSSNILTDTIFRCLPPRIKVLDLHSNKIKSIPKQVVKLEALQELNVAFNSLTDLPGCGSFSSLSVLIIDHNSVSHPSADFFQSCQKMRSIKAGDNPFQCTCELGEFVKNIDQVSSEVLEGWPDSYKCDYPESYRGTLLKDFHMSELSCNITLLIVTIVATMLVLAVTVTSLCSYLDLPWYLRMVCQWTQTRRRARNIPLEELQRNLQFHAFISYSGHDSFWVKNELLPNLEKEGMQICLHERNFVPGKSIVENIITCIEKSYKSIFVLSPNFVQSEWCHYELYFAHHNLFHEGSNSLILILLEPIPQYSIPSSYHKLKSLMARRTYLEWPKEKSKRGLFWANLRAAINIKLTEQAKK

[1] = test system: SFV (A/New Calcdonia/20/99); experiment: Influenza-specific serum IgG ELISA after nasal instillation of SFV with Lip peptide MC58; type: in vivo, C57BL/6 mice; settings: 3 μg SFV + 10 μg peptide nasally Day 0 and Day 14, sera Day 28, versus SFV alone; FIG. 6
Experimental: On day 28, mice were euthanized and exsanguinated by cardiac puncture. Influenza-specific IgG levels were measured in sera collected at Day 28 by ELISA using (A/New Calcdonia/20/99) SFV as solid-phase antigen.

TLR4/MD2/CD14 = TLR4/MD2/CD14 (Homo sapiens, UniProt O00206); experiment: NF-κB SEAP reporter assay in HEK293 cells expressing TLR4/MD2/CD14; settings: FIG. 5
Sequence of TLR4/MD2/CD14 (O00206 24-839): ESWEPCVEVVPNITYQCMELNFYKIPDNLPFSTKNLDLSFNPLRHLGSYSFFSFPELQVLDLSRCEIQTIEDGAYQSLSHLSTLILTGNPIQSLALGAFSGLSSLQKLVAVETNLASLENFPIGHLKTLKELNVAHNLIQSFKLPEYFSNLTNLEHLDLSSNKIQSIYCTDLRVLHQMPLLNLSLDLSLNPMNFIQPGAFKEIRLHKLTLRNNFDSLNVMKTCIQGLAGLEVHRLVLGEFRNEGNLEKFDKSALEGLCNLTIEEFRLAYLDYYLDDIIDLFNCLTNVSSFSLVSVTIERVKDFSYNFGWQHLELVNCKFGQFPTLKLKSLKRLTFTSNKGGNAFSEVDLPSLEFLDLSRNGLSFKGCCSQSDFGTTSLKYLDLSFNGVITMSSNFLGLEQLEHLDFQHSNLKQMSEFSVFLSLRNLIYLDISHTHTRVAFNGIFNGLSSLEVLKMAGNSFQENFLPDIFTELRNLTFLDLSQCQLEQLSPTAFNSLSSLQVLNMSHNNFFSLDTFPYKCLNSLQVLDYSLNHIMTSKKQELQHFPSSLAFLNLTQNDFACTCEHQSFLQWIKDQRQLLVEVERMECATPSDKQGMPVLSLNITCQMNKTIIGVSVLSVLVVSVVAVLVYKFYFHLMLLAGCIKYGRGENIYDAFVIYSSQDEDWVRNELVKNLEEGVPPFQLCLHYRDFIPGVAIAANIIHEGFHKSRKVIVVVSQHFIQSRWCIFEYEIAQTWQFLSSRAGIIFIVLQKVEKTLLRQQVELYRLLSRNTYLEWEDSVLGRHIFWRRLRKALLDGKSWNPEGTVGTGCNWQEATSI
Sequence of TLR4/MD2/CD14 (Q9Y6Y9 19-160 partner): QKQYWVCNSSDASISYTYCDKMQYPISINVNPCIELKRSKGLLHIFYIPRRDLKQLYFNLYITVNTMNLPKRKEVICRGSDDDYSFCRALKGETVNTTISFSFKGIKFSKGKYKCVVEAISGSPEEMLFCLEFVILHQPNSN

split-flu vaccine (SFV) = type: in vivo, C57BL/6 mice; settings: 3 μg SFV + 0.35 μg or 1.0 μg Lip protein nasally Day 0 and Day 14, Day 28 sera, versus SFV alone; batch 1 and batch 2; FIG. 7 and 8

T1 sequence (O60603 21-784, species assumed): as the sequence (O60603 21-784) above
T1 sequence (Q15399 25-786, species assumed): as the sequence (Q15399 25-786) above

Pam3Cys-GGEKAAEAPAAEAS [Lip peptide F62, triacylated Lip peptide from N. gonorrhoeae F62]
production of inflammatory cytokines (Toll-Like Receptor 2): can stimulate

Pam3Cys-GGEKAAEAPAAEAP [Lip peptide MC58, synthetic triacylated H.8 lipopeptide from N. meningitidis MC58 strain]
NF-κB activation (relative 650 nm optic density, SEAP) (human TLR 1 and 2): mainly TLR1 and 2 agonists
serum influenza-specific IgG levels [1]: statistically significant higher levels

B1: Lip protein: Lip protein purified from Neisseria meningitidis (strain 8047) Proteosome preparation (protein)
chain: MKAYLALISAAVIGLAACSQEPAAPAAEATPAAEAPASEAPAAEAAPADAAEAPAAGNCAATVESNDNMQFNTKDIQVSKACKEFTITLKHTGTQPKTSMGHNIVIGKTEDMDGIFKDGVGAADTDYVKPDDARVVAHTKLIGGGEESSLTLDPAKLADGDYKFACTFPGHGALMNGKITLVD
modifications: N.meningitidis
notes: Lip protein purified from Neisseria meningitidis (strain 8047) Proteosome preparation
NF-κB activation (TLR4/MD2/CD14): no significant increase
antigen-specific IgG levels in sera (split-flu vaccine (SFV)): statistically significant (p<0.001 and p<0.01) higher levels; also recorded: significantly higher than the SFV alone
